“And” between values parts separate entries of the source, which are not always exact repeats. Equal entries are not always repeated. Where two headings read alike, the source gives them in different places.
Assays:
[1] = molecular target: SpaO-2SpaOC heterotrimer (Salmonella Typhimurium strain SL1344) (UniProt P40699); test: native MS
[2] = molecular target: SpaO-2SpaOC heterotrimer (Salmonella Typhimurium strain SL1344) (UniProt P40699); test: native MS; remark: listed apart in the source
[3] = molecular target: OrgB, C-terminal His-tag (co-expressed with spaO) (Salmonella Typhimurium strain SL1344); test: native MS
[4] = molecular target: InvC, full-length, C-terminal Strep-tag (Salmonella Typhimurium strain SL1344) (UniProt P0A1B9); test: native MS
[5] = molecular target: OrgB (co-expressed with Strep-tagged InvC or InvC fragments) (Salmonella Typhimurium strain SL1344); test: native MS
[6] = molecular target: T1, SpaO, full-length, C-terminal Strep-tag (Salmonella Typhimurium strain SL1344, UniProt P40699 1-303); test: native MS
T1 sequence (looked up): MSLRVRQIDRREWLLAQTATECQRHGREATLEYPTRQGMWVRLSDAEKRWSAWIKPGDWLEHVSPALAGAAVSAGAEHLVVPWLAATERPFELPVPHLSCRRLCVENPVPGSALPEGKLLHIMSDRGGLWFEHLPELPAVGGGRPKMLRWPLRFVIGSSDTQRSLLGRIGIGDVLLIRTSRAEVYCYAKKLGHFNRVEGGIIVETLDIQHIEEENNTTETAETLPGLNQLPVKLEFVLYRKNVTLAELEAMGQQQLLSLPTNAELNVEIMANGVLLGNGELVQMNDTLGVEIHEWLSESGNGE

[7] = molecular target: T2, SpaO N-terminal domain (SpaO 1-145) (Salmonella Typhimurium strain SL1344, UniProt P40699 1-145); test: ITC
T2 sequence (looked up): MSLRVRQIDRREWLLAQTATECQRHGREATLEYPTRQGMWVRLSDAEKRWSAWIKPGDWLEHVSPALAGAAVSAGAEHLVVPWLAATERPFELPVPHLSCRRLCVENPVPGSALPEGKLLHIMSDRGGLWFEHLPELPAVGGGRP

[8] = molecular target: T2, SpaO N-terminal domain (SpaO 1-145); test: SEC-MALS
[9] = molecular target: T2, SpaO N-terminal domain (SpaO 1-145); test: native MS
[10] = molecular target: T3, SpaO SPOA1-SPOA2 construct (SpaO 140-297) (Salmonella Typhimurium strain SL1344, UniProt P40699 140-297); test: native MS
T3 sequence (looked up): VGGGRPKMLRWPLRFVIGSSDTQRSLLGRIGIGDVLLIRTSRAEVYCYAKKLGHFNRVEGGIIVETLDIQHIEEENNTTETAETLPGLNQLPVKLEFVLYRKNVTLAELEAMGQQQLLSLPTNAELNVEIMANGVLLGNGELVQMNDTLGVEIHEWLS

native MS = molecular target: the molecule itself; test: native MS
[11] = molecular target: T4, SpaO in the SpaO/SpaOC/OrgB/InvC complex (spaO+orgB+invC co-expression) (Salmonella Typhimurium strain SL1344, UniProt P40699 1-303); test: native MS
T4 sequence (looked up): T1 sequence (looked up)

Chain of InvC, full-length, C-terminal Strep-tag (Salmonella Typhimurium strain SL1344) (P0A1B9 whole entry, the tested form may be a part): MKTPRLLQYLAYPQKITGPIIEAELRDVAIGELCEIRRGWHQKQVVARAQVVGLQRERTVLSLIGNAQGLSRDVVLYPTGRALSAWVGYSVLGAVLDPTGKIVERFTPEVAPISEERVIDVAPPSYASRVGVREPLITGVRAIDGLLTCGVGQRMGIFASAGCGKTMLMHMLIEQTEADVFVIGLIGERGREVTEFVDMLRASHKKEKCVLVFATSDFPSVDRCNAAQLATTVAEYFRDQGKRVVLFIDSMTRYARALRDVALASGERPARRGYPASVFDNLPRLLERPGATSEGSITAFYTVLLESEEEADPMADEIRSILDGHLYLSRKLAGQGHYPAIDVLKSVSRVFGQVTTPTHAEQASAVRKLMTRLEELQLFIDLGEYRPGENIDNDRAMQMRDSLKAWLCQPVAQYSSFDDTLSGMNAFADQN

**Q.** “SpaO-2SpaOC heterotrimer (from UniProt P40699 1-303; P40699 203-303) (complex)” was tested. Which stoichiometry N [1] did it give?
**A.** Its stoichiometry N is 2.

**Q.** And the stoichiometry N [2]?
**A.** Its stoichiometry N is 2.

**Q.** With “OrgB, C-terminal His-tag (co-expressed with spaO) (natural protein)” as the molecule, how does the stoichiometry N [3] read?
**A.** Its stoichiometry N is 2.

**Q.** How did the stoichiometry N (OrgB per InvC) [4] turn out when “OrgB (co-expressed with Strep-tagged InvC or InvC fragments) (natural protein)” was run?
**A.** The stoichiometry N (OrgB per InvC) was 2.

**Q.** And the stoichiometry N [5]?
**A.** The stoichiometry N was 2.

B1: SpaOC, short product of the spaO gene, C-terminal Strep-tag (natural protein, Salmonella Typhimurium strain SL1344, UniProt P40699 203-303, looked up)
chain: METLDIQHIEEENNTTETAETLPGLNQLPVKLEFVLYRKNVTLAELEAMGQQQLLSLPTNAELNVEIMANGVLLGNGELVQMNDTLGVEIHEWLSESGNGE
**Q.** Which “stoichiometry N” value [6] does the source give for B1 here?
**A.** Its value is 2 SpaOC per SpaO.

**Q.** What about the Kd [7] of the same molecule?
**A.** The Kd was 1.04 ± 0.21 µM.

**Q.** And the “stoichiometry N” value [8]?
**A.** The value was 2 SpaOC per SpaO(1-145).

**Q.** And the “stoichiometry N” value [9]?
**A.** The value was 4 SpaOC per SpaO(1-145).

**Q.** And the “stoichiometry N” value [10]?
**A.** The value was 2 SpaOC per SpaO(140-297).

**Q.** What about the “stoichiometry N” value (native MS) of the same molecule?
**A.** The value was 2 and 4.

B2: SpaOC in the SpaO/SpaOC/OrgB/InvC complex (spaO+orgB+invC co-expression) (natural protein, Salmonella Typhimurium strain SL1344, UniProt P40699 203-303, looked up)
chain: B1 chain
**Q.** For B2, which “stoichiometry N” value [11] is on record?
**A.** The value was 2 SpaOC per SpaO.

— paper doi:10.1101/648071 (bioRxiv, 2019)
